Test results from paper PMC8092277, “Cytoplasmic CPSF6 Regulates HIV-1 Capsid Trafficking and Infection in a Cyclophilin A-Dependent Manner” (mBio, 2021).

Target: the molecule itself
Assay: negative-stain TEM; MBP-CPSF6 P1 or P2 alone, incubated in CA assembly buffer

B1: MBP-His6-CPSF6-588 (natural protein, UniProt Q16630-2 1-588, looked up)
chain: MADGVDHIDIYADVGEEFNQEAEYGGHDQIDLYDDVISPSANNGDAPEDRDYMDTLPPTVGDDVGKGAAPNVVYTYTGKRIALYIGNLTWWTTDEDLTEAVHSLGVNDILEIKFFENRANGQSKGFALVGVGSEASSKKLMDLLPKRELHGQNPVVTPCNKQFLSQFEMQSRKTTQSGQMSGEGKAGPPGGSSRAAFPQGGRGRGRFPGAVPGGDRFPGPAGPGGPPPPFPGNLIKHLVKGTRPLFLETRIPWHMGHSIEEIPIFGLKAGQTPPRPPLGPPGPPGPPGPPPPGQVLPPPLAGPPNRGDRPPPPVLFPGQPFGQPPLGPLPPGPPPPVPGYGPPPGPPPPQQGPPPPPGPFPPRPPGPLGPPLTLAPPPHLPGPPPGAPPPAPHVNPAFFPPPTNSGMPTSDSRGPPPTDPYGRPPPYDRGDYGPPGREMDTARTPLSEAEFEEIMNRNRAISSSAISRAVSDASAGDYGSAIETLVTAISLIKQSKVSADDRCKVLISSLQDCLHGIESKSYGSGSRRERSRERDHSRSREKSRRHKSRSRDRHDDYYRERSRERERHRDRDRDRDRERDREREYRHR
notes: cleavage and polyadenylation specificity factor 6 (CPSF6), the isoform of 588 residues, full length; Order: MBP, His6, CPSF6; An HRV-3C site allows removal of MBP, but the cleaved protein precipitated, so the tagged protein was used; Size exclusion gave two peaks of the same construct, P1 and P2, which are kept here as one molecule; also called MBP-CPSF6; full-length CPSF6; source: Expi 293F …
binding result: binds
